Earlier results in paper PMC3193156.

Key:
[1] = system: Cys117; conditions: Resting state (free reduced enzyme)
[2] = system: His103; conditions: Resting state (free reduced enzyme)
[3] = target: Cys95 (UniProt position 95, GQSRFCIFSSS); experiment: NMR
[4] = target: His80 (UniProt position 80, GNGLGHEFLND); experiment: NMR

Substance	pKa [1]	pKa [2]	pKa [3]	pKa [4]
Methionine sulfoxide reductase B (MsrB domain of PilB) (Neisseria meningitidis)	9.3	6.6		
Methionine-R-sulfoxide reductase B1 (MsrB1, selenoprotein R), Cys95 form (Mus musculus; U95C)			6.0	5.7
